According to the supplement of paper PMC9170038:

Tested on: MS2 coat protein
Assay: apparent KD of MS2 coat protein; designed switch direction (-1 OFF switch, 1 ON switch): -1; higher = weaker reporter binding
How it was run: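 SNAP-549-labelled MS2 coat protein was titrated, doubling from 0.7 or 1.5 nM to 3 µM, over designed RNA switches transcribed on Illumina chips by stalled E. coli RNA polymerase. Runs were done without input, with 200 uM small-molecule ligand, or with an oligonucleotide input. Apparent KD is the per-design median over clusters of curve-fitted normalised fluorescence.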

[1] = input ligand: microRNA oligo, concentration not stated
[2] = Eterna round: R95, input ligand: FMN 200 uM
[3] = Eterna round: R95, input ligand: microRNA oligo, concentration not stated
[4] = Eterna round: R95, input ligand: none

Sequence | apparent KD of MS2 coat protein (input ligand: FMN 200 uM) [nM] | apparent KD of MS2 coat protein (input ligand: none) [nM] | apparent KD of MS2 coat protein [1] [nM] | apparent KD of MS2 coat protein [2] [nM] | apparent KD of MS2 coat protein [3] [nM] | apparent KD of MS2 coat protein [4] [nM]
UGUGUCCGGGAGGAUAUCAGAACGCUAGUGGUCUGAGAAGGCCUAACAUGAGGAUCACCCAUGUGAUUAUUUAU [Eternabot (L2) Solution 51] (Eterna round: R97, puzzle: Exclusion 6) | 93.4 | 52.5 |  |  |  | 
GGUCAGAUGGUAGGAUAUCCAUAUCGAGUGACCCUUUCAUAACAUGAGGAUCACCCAUGUCGGUGGGAGAAGGGCCGUACGGUG [salish99_ExNG02_R04_023] (Eterna round: R96, puzzle: Exclusion NG 2) | 39.5 | 48.8 | 41.2 |  |  | 
GAAUACAAGUAAAGAUCCUACAUGAGGAUCACCCAUGUGCUCGUCUUGUAAAGUACUAUCACGAAAGUGAUAGUACA [Mat - Sensor v3 - turn-off var 1 - Eli Mod - D88] (puzzle: Sensor v3, turn-off variant 1) |  |  |  | 53.8 | 159 | 47.1
GGUGAAGCAGGAUAUGUAUCGAUAUACAUGAGGAUCACCCAUGUCAUGUAGAAACCGCAUAUAGAAGGGCUUCACC [Exclusion 5 (FMN-MS2 slide v.6)] (Eterna round: R97, puzzle: Exclusion 5) | 163 | 47.4 |  |  |  | 
GUCGUGCGGCAGUGCUGUACGAGUACAUGAGGAUCACCCAUGUAGGAUAUGGUUCGUUUUGCGUGCUAGAAGGGCGUGCGUUUA [Excl-NG3-LRO19] (Eterna round: R96, puzzle: Exclusion NG 3) | 18.4 | 21.2 | 18.2 |  |  | 
CUGGUCCGAGGAUAUAUUAAGUGAUACAUGAGGAUCACCCAUGUUAUUUAAUGGAUGUUAAUAGAAGGCGGACUAG [JL-ex5-3.19] (puzzle: Exclusion 5) |  |  |  | 33.9 | 43.9 | 34.8
CACCGGGUAGGAUAUACUUGAGGAUCACCCAAGUGGGAACCUACUCGGUGGUCCUUAAGUAGAAGGACCAACGG [Ex 2] (Eterna round: R97, puzzle: Exclusion 3) | 11.5 | 11.9 |  |  |  | 
GUAUAAUGAGUCAGGAUAUUGAUGACGCUAGGACACAAGAAGGGACAUGAGGAUCACCCAUGUUAUUAUGCGGU [Eternabot (L2) Solution 29] (Eterna round: R97, puzzle: Brourd's mod of Exclusion 4) | 88.2 | 63.9 |  |  |  | 
ACUAGCUUUUUGCAUAGUAGGUUUGGUGCUUCGUAUGCUACAUGAGGAUCACCCAUGUAUUACUGAUUUCGUCGUUU [JR_SV3TOV2_Sub093] (puzzle: Sensor v3, turn-off variant 2) |  |  |  | 24.6 | 41.1 | 27.3
GGCCCGGGAGGAUAUACAAUGGGCUCGGGAAAUCGGGCUCGACAUGAGGAUCACCCAUGUAGAAGGCCCGGGCC [-36.5, -34.6 kcal A 24%, 4,0] (Eterna round: R97, puzzle: Exclusion 2) | 34 | 21.8 |  |  |  | 
AAGAAACAUGAGGAUCACCCAUGUGAGGAUAUGAAGAAGAAAAGAAAAGAAAGAAGAAUCAGAAGGCACAAAGG [salish99-ex1_r3_046] (puzzle: Exclusion 1) |  |  |  | 67.1 | 25.8 | 48.4
AAGUACUACAAGCUUUGGGACAUGAGGAUCACCCAUGUUCGUCUUAUUGAUCUAGGUACGCUGACGUACCUAGAUCU [Mat - Sensor v3 - turn-off var 1 - JL Mod - D8] (puzzle: Sensor v3, turn-off variant 1) |  |  |  | 16.5 | 73.4 | 13.2
GAGGGAGGAGGAUAUUCCUUCGAGAACAUGAGGAUCACCCAUGUGUUAUAUCGAAAGCCCGAAGAAGGCCUCGCUA [Eternabot (Original) Solution 50] (Eterna round: R97, puzzle: Exclusion 5) | 17.5 | 20.2 |  |  |  | 
GAUCGACAUGAGGAUCACCCAUGUCAGGAUAUCGUCACUGGAGCUUCGGCUCCAGUGACGAGAAGGGAUAUAAU [E1/16-A1] (Eterna round: R97, puzzle: Exclusion 1) | 26.3 | 36.1 |  |  |  | 
AAAUCGGAGGAGGAUAUGGUACAGGAAAUGGUGCCAGAAGGUUUCACAUGAGGAUCACCCAUGUCAAAUAGCGA [EX6 #60] (Eterna round: R97, puzzle: Exclusion 6) | 19.1 | 27.1 |  |  |  | 
GAUACACAUGAGGAUCACCCAUGUGAGGAUAUGCGUACGUUGUCCGUAGGCGACGUGCGCAGAAGGCGCGAGGU [Mat - Mod of JL D92] (puzzle: Exclusion 1) |  |  |  |  | 31.8 | 
GCCGAAAGUGUGAGGAUAUACCUAUGGAAACAUAGGUAGAAGGCACAUGAGGAUCACCCAUGUGGGAAAACGGC [Mat - Exclusion 4 - Eli Mod - D29] (Eterna round: R97, puzzle: Brourd's mod of Exclusion 4) | 322 | 152 |  |  |  | 
AUCGUGAAGAAGGAUAUGGGCCCGGUAAUACGACUAGAAGGUCUGACAUGAGGAUCACCCAUGUGAUACCAAAA [Arorquis] (puzzle: Exclusion 6) |  |  |  | 32.2 | 33.3 | 32.5

Sequence | apparent KD of MS2 coat protein (input ligand: FMN 200 uM) [nM] | apparent KD of MS2 coat protein (input ligand: none) [nM] | apparent KD of MS2 coat protein [1] [nM] | apparent KD of MS2 coat protein [2] [nM] | apparent KD of MS2 coat protein [3] [nM] | apparent KD of MS2 coat protein [4] [nM]
CCAUGGGUGCGAGGAUAUAGCCCAUGGGAAGAGCUAGAAGGCGCAGACAUGAGGAUCACCCAUGUGUUCAUGAGGAGGUGGACA (Eterna round: R96, puzzle: Exclusion NG 1) | 124 | 84.8 | 54.8 |  |  | 
UUGUUCCGUGUAGGAUAUUGGUCUCCCUCGGGCCGAGAAGGACAUGAGGAUCACCCAUGUAUGCUAUUAUCGCGCGUGGCGCAC [Design 93] (Eterna round: R96, puzzle: Exclusion NG 1) | 138 | 47.3 | 34.1 |  |  | 
CCACUGUCAGGAUAUCGUGCAUAACGUUUACAUUAUAUGUGCGAGAAGGGACAUGAGGAUCACCCAUGUAAACG [Omei Ex4 A28PK1] (Eterna round: R97, puzzle: Exclusion 4) | 604 | 566 |  |  |  | 
AAUAAGCUAGGAUAUACAUGAGGAUCACCCAUGUGAGGGCACCGCCGGCGCGGGCCCGGUAGAAGGAGCAAUAA [Exc;s3-IV] (puzzle: Exclusion 3) |  |  |  |  | 16.1 | 
GUCAGCUCGUGAGGAUAUACAUGAUAGAUCGAUUAAUUAAUUAAUUUAACAUGAGGAUCACCCAUGUAGAAGGCACGAGCUGAU [ENG2/1-A2] (Eterna round: R96, puzzle: Exclusion NG 2) |  |  | 35.8 |  |  | 
UUUAUGUCAGGAUAUGAGUAGUAGAACAAUAGUACUACUACUCAGAAGGGACAUGAGGAUCACCCAUGUUUCUC [Fiskers Ex 4 Super stable 44 mod 24] (puzzle: Exclusion 4) |  |  |  |  | 22.6 | 
GUCUCGUCAGGAUAUGACGCUACAUUUUUUUUUUAGAAGAGUCAGAAGGGACAUGAGGAUCACCCAUGUGAUUC [Ex4 - 3 - 2] (puzzle: Exclusion 4) |  |  |  |  | 167 | 
UUUAUGUCAGGAUAUGAUUAGAUCUACUUCGGUAGAUCUAAUCAGAAGGGACAUGAGGAUCACCCAUGUAGUUU [Ex4 - 3 - 13] (Eterna round: R96, puzzle: Exclusion 4) | 671 | 180 | 137 |  |  | 
CCGGAAGUACAGGAUAUAGGAGUCGAUAGACUCCUAGAAGGGUAUACAUGAGGAUCACCCAUGUGUCCUACCGG [Fiskers Ex 6 - 71] (puzzle: Exclusion 6) |  |  |  |  | 23.6 | 
AGAAAGCAAGGAUAUACGAGGAGAAGGAGGAAAGUUAAAGGACAUGAGGAUCACCCAUGUAGAAGGUGCGAGAA [JR_Exclu2_Sub042] (puzzle: Exclusion 2) |  |  |  | 33.3 | 58.9 | 55.8
AAUAACAGAGGAUAUACUAUUUUAUGUGUUUAUUGUUUUGAACAUGAGGAUCACCCAUGUAGAAGGCUGAGUAA [JMF 38] (puzzle: Exclusion 2) |  |  |  |  | 27.5 | 
AACUUCUGAGGAUAUACAUAGAUUUACAUGAGGAUCACCCAUGUUCCUCUAUGUAUAAAUGUAGAAGGCAGAAGAU [Mat - Exclusion 5 - JL Mod - D62] (Eterna round: R97, puzzle: Exclusion 5) | 129 | 18.4 |  |  |  | 
CACCCUGAUGUCAGGAUAUGCGCGUCGCGCCUCGAGCAGAAGGGACAUGAGGAUCACCCAUGUUGUCUCUUGGG [Orisvedixe] (puzzle: Brourd's mod of Exclusion 4) |  |  |  |  | 44.5 | 
GCAAGAGCAGGAUAUCUAAUAUAUCACAUGAGGAUCACCCAUGUCCAGCGAAAGCUGGAGGGAGAAGGGCUCUUGC [Mat - Exclusion 5 - Eli mod - D101] (puzzle: Exclusion 5) |  |  |  | 58.9 | 123 | 150
GGUCCACAUGAGGAUCACCCAUGUUAGGAUAUCUCCCGCCUCCUCACUAGAGGCGGACAGAGAAGGAACAUCAA [Raerge] (puzzle: Exclusion 1) |  |  |  |  | 23.2 | 
GCACGGAUCGUAGGAUAUCAUUGCGAUUAGCUAUGAGAAGGACGACAUGAGGAUCACCCAUGUCCUCUAAUUAGCCUUCCGUGC [Eli exng1 - 017] (Eterna round: R96, puzzle: Exclusion NG 1) | 52.9 | 38.5 | 21.8 |  |  | 
CACCGUUAGUGAGGAUAUCGUACAUGAGGAUCACCCAUGUAAUAAAUGAGAAUUUCGGAUGUAUGCGAGAAGGCACAAAUCGGC [Ostracism 40 - Jieux - Exclusion NG 2] (Eterna round: R96, puzzle: Exclusion NG 2) | 37.1 | 45.2 | 34.7 |  |  | 
